Reference: patent US20260035458A1 (Astellas, published 2026)
Residue numbers refer to the chain shown, from its start.

Tests used:
human CLDN18.2 [1] = biological target: T1, human CLDN18.2 (human); assay: flow cytometry on SNU-601 (2E4) cells (enriched for CLDN18.2), Alexa Fluor 647 anti-human IgG Fcγ secondary
T1 construct: also called claudin 18 splice variant 2
Text: Control samples included bsAbs having murine CLDN18.2 ABDs, bivalent anti-CLDN18.2 mAbs, cells only, and secondary antibody only.

human CLDN18.2 [2] = biological target: T1, human CLDN18.2; assay: flow cytometry on HEK293 cells transiently transfected with human CLDN18.2 (column hCLDN18.2 EC50 (nM))
Experimental: Therefore, the anti-CLDN18.2× anti-CD3 bsAbs were investigated for their binding to human CLDN18.2, cynomolgus CLDN18.2, and murine CLDN18.2. HEK293 cells were transiently transfected to express human, cynomolgus, or mouse CLDN18.2. 48 hours post transfection, cells were mixed with indicated concentrations of the bsAbs and incubated for 1 hour at 4° C. Cells were washed and then stained with a secondary Ab for 1 hour at 4° C. After two more washes, cells were analyzed on an Attune flow cytometer.

human CLDN9 = biological target: T2, human CLDN9 (human, UniProt O95484 1-217); assay: flow cytometry on HEK293 cells transiently transfected with human CLDN9, AF647 secondary antibody
T2 construct: whole, on cells; Transiently expressed on HEK293 cells
T2 sequence (looked up): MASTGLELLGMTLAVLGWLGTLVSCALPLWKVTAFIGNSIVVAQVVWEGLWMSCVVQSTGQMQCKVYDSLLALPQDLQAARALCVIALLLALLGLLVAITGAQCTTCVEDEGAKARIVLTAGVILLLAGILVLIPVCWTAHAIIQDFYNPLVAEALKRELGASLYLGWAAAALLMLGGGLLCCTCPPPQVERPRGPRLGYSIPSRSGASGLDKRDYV

B1: XENP29476 (bispecific antibody)
heavy: EVQLVQSGAEVKKPGESLRISCKASGYTFTSYWINWVRQMPGKGLEWMGNIYPSDSYTNYNQKFQGHVTISVDKSISTAYLQWSSLKASDTAMYYCTRSWRGNSFDYWGQGTLVTVSSASTKGPSVFPLAPSSKSTSGGTAALGCLVKDYFPEPVTVSWNSGALTSGVHTFPAVLQSSGLYSLSSVVTVPSSSLGTQTYICNVNHKPSDTKVDKKVEPKSCDKTHTCPPCPAPPVAGPSVFLFPPKPKDTLMISRTPEVTCVVVDVKHEDPEVKFNWYVDGVEVHNAKTKPREEEYNSTYRVVSVLTVLHQDWLNGKEYKCKVSNKALPAPIEKTISKAKGQPREPQVYTLPPSREEMTKNQVSLTCDVSGFYPSDIAVEWESDGQPENNYKTTPPVLDSDGSFFLYSKLTVDKSRWEQGDVFSCSVMHEALHNHYTQKSLSLSPGK
chain: EVQLVQSGAEVKKPGESLRISCKASGYTFTSYWINWVRQMPGKGLEWMGNIYPSDSYTNYNQKFQGHVTISVDKSISTAYLQWSSLKASDTAMYYCTRSWRGNSFDYWGQGTLVTVSSASTKGPSVFPLAPSSKSTSGGTAALGCLVKDYFPEPVTVSWNSGALTSGVHTFPAVLQSSGLYSLSSVVTVPSSSLGTQTYICNVNHKPSNTKVDKKVEPKSCGGGGSGGGGSEVQLVESGGGLVQPGGSLRLSCAASGFTFSTYAMNWVRQAPGKGLEWVGRIRSKYNNYATYYADSVKGRFTISRDDSKNTLYLQMNSLRAEDTAVYYCVRHGNFGDSYVSWFAYWGQGTLVTVSSGKPGSGKPGSGKPGSGKPGSQAVVTQEPSLTVSPGGTVTLTCGSSTGAVTTSNYANWVQQKPGKSPRGLIGGTNKRAPGVPARFSGSLLGGKAALTISGAQPEDEADYYCALWYSNHWVFGGGTKLTVLGGGGSGGGGSKTHTCPPCPAPPVAGPSVFLFPPKPKDTLMISRTPEVTCVVVDVKHEDPEVKFNWYVDGVEVHNAKTKPREEQYNSTYRVVSVLTVLHQDWLNGKEYKCKVSNKALPAPIEKTISKAKGQPREPQVYTLPPSREQMTKNQVKLTCLVKGFYPSDIAVEWESNGQPENNYKTTPPVLDSDGSFFLYSKLTVDKSRWQQGNVFSCSVMHEALHNHYTQKSLSLSPGK
light: not shown
notes: also called anti-CLDN18.2× anti-CD3 bsAb; Fab2-scFv
Human CLDN18.2 [1]
  EC50 (read off the curve): ~500 ng/mL
Human CLDN18.2 [2]
  EC50: 6 nM
Human CLDN9
  binding result: no binding (tested: 30000 ng/ml)

B2: XENP29472 (bispecific antibody)
heavy: B1 heavy
chain: not shown
light: not shown
notes: also called anti-CLDN18.2× anti-CD3 bsAb; Fab-scFv
Human CLDN18.2 [2]
  EC50: 146 nM
Human CLDN9
  binding result: no binding (tested: 30000 ng/ml)

B3: XENP24647 (bispecific antibody)
heavy: QVQLQQPGAELVRPGASVKLSCKASGYTFTSYWINWVKQRPGQGLEWIGNIYPSDSYTNYNQKFKDKATLTVDKSSSTAYMQLSSPTSEDSAVYYCTRSWRGNSFDYWGQGTTLTVSSASTKGPSVFPLAPSSKSTSGGTAALGCLVKDYFPEPVTVSWNSGALTSGVHTFPAVLQSSGLYSLSSVVTVPSSSLGTQTYICNVNHKPSDTKVDKKVEPKSCDKTHTCPPCPAPPVAGPSVFLFPPKPKDTLMISRTPEVTCVVVDVKHEDPEVKFNWYVDGVEVHNAKTKPREEEYNSTYRVVSVLTVLHQDWLNGKEYKCKVSNKALPAPIEKTISKAKGQPREPQVYTLPPSREEMTKNQVSLTCDVSGFYPSDIAVEWESDGQPENNYKTTPPVLDSDGSFFLYSKLTVDKSRWEQGDVFSCSVMHEALHNHYTQKSLSLSPGK
chain: QVQLQQPGAELVRPGASVKLSCKASGYTFTSYWINWVKQRPGQGLEWIGNIYPSDSYTNYNQKFKDKATLTVDKSSSTAYMQLSSPTSEDSAVYYCTRSWRGNSFDYWGQGTTLTVSSASTKGPSVFPLAPSSKSTSGGTAALGCLVKDYFPEPVTVSWNSGALTSGVHTFPAVLQSSGLYSLSSVVTVPSSSLGTQTYICNVNHKPSNTKVDKKVEPKSCGGGGSGGGGSEVQLVESGGGLVQPGGSLRLSCAASGFTFSTYAMNWVRQAPGKGLEWVGRIRSKYNNYATYYADSVKGRFTISRDDSKNTLYLQMNSLRAEDTAVYYCVRHGNFGDSYVSWFAYWGQGTLVTVSSGKPGSGKPGSGKPGSGKPGSQAVVTQEPSLTVSPGGTVTLTCGSSTGAVTTSNYANWVQQKPGKSPRGLIGGTNKRAPGVPARFSGSLLGGKAALTISGAQPEDEADYYCALWYSNHWVFGGGTKLTVLGGGGSGGGGSKTHTCPPCPAPPVAGPSVFLFPPKPKDTLMISRTPEVTCVVVDVKHEDPEVKFNWYVDGVEVHNAKTKPREEQYNSTYRVVSVLTVLHQDWLNGKEYKCKVSNKALPAPIEKTISKAKGQPREPQVYTLPPSREQMTKNQVKLTCLVKGFYPSDIAVEWESNGQPENNYKTTPPVLDSDGSFFLYSKLTVDKSRWQQGNVFSCSVMHEALHNHYTQKSLSLSPGK
light: DIVMTQSPSSLTVTAGEKVTMSCKSSQSLLNSGNQKNYLTWYQQKPGQPPKLLIYWASTRESGVPDRFTGSGSGTDFTLTISSVQAEDLAVYYCQNDYSYPFTFGSGTKLEIKRTVAAPSVFIFPPSDEQLKSGTASVVCLLNNFYPREAKVQWKVDNALQSGNSQESVTEQDSKDSTYSLSSTLTLSKADYEKHKVYACEVTHQGLSSPVTKSFNRGEC
notes: as for B1
Human CLDN18.2 [1]
  EC50 (read off the curve): ~600 ng/mL
Human CLDN18.2 [2]
  EC50: 4 nM
Human CLDN9
  binding result: no binding (tested: 30000 ng/ml)

B4: XENP24645 (bispecific antibody)
heavy: B3 heavy
chain: not shown
light: B3 light
notes: expressed in HEK293E cells; also called anti-CLDN18.2× anti-CD3 bsAb; Fab-scFv
Human CLDN18.2 [2]
  EC50: 145 nM
Human CLDN9
  binding result: no binding (tested: 30000 ng/ml)

B5: XENP24644 (antibody, V domains shown)
VH: QVQLQQPGAELVRPGASVKLSCKASGYTFTSYWINWVKQRPGQGLEWIGNIYPSDSYTNYNQKFKDKATLTVDKSSSTAYMQLSSPTSEDSAVYYCTRSWRGNSFDYWGQGTTLTVSS
VL: DIVMTQSPSSLTVTAGEKVTMSCKSSQSLLNSGNQKNYLTWYQQKPGQPPKLLIYWASTRESGVPDRFTGSGSGTDFTLTISSVQAEDLAVYYCQNDYSYPFTFGSGTKLEIK
notes: also called H0L0 CLDN18.2; bivalent mAb
Human CLDN18.2 [1]
  EC50 (read off the curve): ~400 ng/mL
Human CLDN18.2 [2]
  EC50: 4 nM
Human CLDN9
  binding result: no binding (tested: 30000 ng/ml)

B6: XENP29470 (antibody, V domains shown)
VH: EVQLVQSGAEVKKPGESLRISCKASGYTFTSYWINWVRQMPGKGLEWMGNIYPSDSYTNYNQKFQGHVTISVDKSISTAYLQWSSLKASDTAMYYCTRSWRGNSFDYWGQGTLVTVSS
VL: B5 VL with S9D, T12A, T14S, A15L, K18R, V19A, M21I, S22N, V84L, L89V
notes: also called H1L1 CLDN18.2 (printed H1LI); bivalent mAb
Human CLDN18.2 [1]
  EC50 (read off the curve): ~500 ng/mL

B7: XENP29471 (antibody, V domains shown)
VH: QVQLVQSGAEVKKPGASVKVSCKASGYTFTSYWINWVRQAPGQGLEWMGNIYPSDSYTNYNQKFQGRVTMTVDKSTSTAYMELSSLRSEDTAVYYCTRSWRGNSFDYWGQGTLVTVSS
VL: B5 VL with S9D, T12A, T14S, A15L, K18R, V19A, M21I, S22N, V84L, L89V
notes: also called H2L1 CLDN18.2; bivalent mAb
Human CLDN18.2 [1]
  EC50 (read off the curve): ~900 ng/mL
